According to the supplement of paper PMC9732359:
± gives the uncertainty stated by the source.

Assay: protein stability index of a GFP-peptide fusion (yeast GPS) (PSI 1-4); higher = more stable; sorted into four equal gates, so the index is relative within each strain
Method in brief: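 Mid-log yeast cultures in leucine-free medium, carrying a pooled plasmid library, were sorted into four equal gates by their GFP/Cherry fluorescence ratio. Each plasmid expressed Cherry along with GFP fused upstream of a tiled 17-residue yeast protein peptide. Plasmids recovered from each gate were PCR-amplified and Illumina-sequenced, with reads assigned to strains by barcodes. The protein stability index was obtained by summing each gate's read frequency weighted by its gate number.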

Row | Sequence | protein stability index (doa10∆) | protein stability index (pdr5∆) | protein stability index (san1∆) | protein stability index (ubr1∆)
1 | VTTCVYLACKVEECPQY [SSN8] | 1.93 ± 0.059 | 2.05 ± 0.075 | 2.58 ± 0.11 | 1.96 ± 0.073
2 | AIKDKLEQDLHFENAKV [YIL149C/MLP2] | 3.09 ± 0.066 | 3.29 ± 0.075 | 3.35 ± 0.069 | 3.16 ± 0.079
3 | ELLNADHQHILRKLKKM [RPC53] | 1.13 ± 0.059 | 1.24 ± 0.063 | 1.11 ± 0.15 | 1.28 ± 0.046
4 | LFRAIYLYCLDNNITEM [YCG1] | 2.08 ± 0.052 | 2.09 ± 0.044 | 2.1 ± 0.061 | 2.38 ± 0.05
5 | IPSSKIDDFTTRLWGSV [SNU114] | 2.93 ± 0.16 | 3.05 ± 0.14 | 3 ± 0.12 | 3.21 ± 0.12
6 | KTYALESINNVVDQLWS [RPN2] | 2.82 ± 0.066 | 2.9 ± 0.059 | 2.7 ± 0.07 | 2.6 ± 0.055
7 | IAGHDEFNGFSLYQVDP [PRE8] | 3.15 ± 0.09 | 3.31 ± 0.15 | 3.21 ± 0.11 | 2.94 ± 0.095
8 | EIKLLEISCKQWEISNM [CSI1] |  | 3.44 ± 0.27 |  | 3.55 ± 0.23
9 | QESLLSRTFDKYSKLVD [SRP72] | 2.83 ± 0.059 | 2.9 ± 0.068 | 2.99 ± 0.055 | 2.7 ± 0.04
10 | LVDENTDYLYRRLHDEN [YCS4] | 2.68 ± 0.056 | 2.64 ± 0.048 | 2.68 ± 0.063 | 2.24 ± 0.034
11 | NKLFTEPIKLEPVKEYT [YMR129W/POM152] | 2.34 ± 0.05 | 2.39 ± 0.06 | 2.4 ± 0.084 | 2.4 ± 0.072
12 | SLFSHRKHTRGDVSSGL [BRN1] | 3.28 ± 0.19 | 3.01 ± 0.17 | 3.28 ± 0.16 | 3.22 ± 0.059
13 | RYKFPGQQKIILSKKWG [RPL10] | 2.69 ± 0.22 |  |  | 2.29 ± 0.21
14 | PSTGFKFSLPFEQKGSQ [YLR335W/NUP2] | 2.99 ± 0.11 | 2.94 ± 0.088 | 3.07 ± 0.087 | 2.96 ± 0.096
15 | NKIKLNILKILSSLILK [SRB8] | 1.79 ± 0.072 | 1.73 ± 0.074 |  | 1.87 ± 0.053
16 | EEEQDTGESEESSSEDD [IRR1] | 3.23 ± 0.2 | 3.44 ± 0.23 | 3.35 ± 0.11 | 3.43 ± 0.06
17 | MGKSAVIFVERATPATL [SRB2] | 2.36 ± 0.14 | 1.31 ± 0.076 | 1.66 ± 0.2 | 1.31 ± 0.29
18 | KQENSSRFTNVSVIAPE [YMR153W/NUP53] | 2.71 ± 0.065 | 2.54 ± 0.055 | 1.59 ± 0.062 | 2.49 ± 0.033
19 | LGNVIVPNILSLDMNSM [NUT1] | 2.16 ± 0.06 | 2.17 ± 0.058 | 2.04 ± 0.093 | 2.27 ± 0.051
20 | GTGKTMLVKAVANSTKA [RPT3] | 2.64 ± 0.19 | 1.47 ± 0.1 | 2.02 ± 0.096 | 1.31 ± 0.13
21 | GENAAEKPDNSNHNNLN [SNF2] | 3.01 ± 0.068 | 3.25 ± 0.064 | 3.27 ± 0.05 | 3.21 ± 0.035
22 | IGFITSGTYHLNCGNGM [POP1] | 2.56 ± 0.1 | 2.93 ± 0.082 | 2.09 ± 0.093 | 2.92 ± 0.048
23 | QQQQQQQQQQQQQGQIP [SNF5] | 2.729 ± 0.023 | 2.79 ± 0.023 | 2.75 ± 0.022 | 2.826 ± 0.02
24 | CIIAVSCTLLERGHPKD [POP1] | 1.46 ± 0.022 | 1.52 ± 0.029 | 1.81 ± 0.036 | 1.96 ± 0.027
25 | PLPHRVQKSTKTFSYKR [RPL20A] | 2.39 ± 0.058 | 2.93 ± 0.051 | 2.63 ± 0.057 | 2.38 ± 0.043
26 | ADKSLPSSMATLLKNLR [YJR042W/NUP85] | 2.97 ± 0.081 | 2.81 ± 0.077 | 2.87 ± 0.054 | 2.86 ± 0.057
27 | SLGFNEVFSRPEWMILT [RPO21] | 1.5 ± 0.11 | 1.74 ± 0.1 | 1.62 ± 0.12 | 1.21 ± 0.066

Row | Sequence | protein stability index (doa10∆) | protein stability index (pdr5∆) | protein stability index (san1∆) | protein stability index (ubr1∆)
28 | GHEELKRRIEEEQEKIN [ISW2] | 3.36 ± 0.082 | 3.47 ± 0.086 | 3.13 ± 0.062 | 3.35 ± 0.055
29 | PSGAKKVISSDARGVIG [RPL2A] | 2.88 ± 0.072 | 3.13 ± 0.066 | 2.9 ± 0.076 | 3.04 ± 0.077
30 | PYAIIKGKARLGTLVNQ [RPL8B] | 1.83 ± 0.058 | 1.99 ± 0.06 | 1.28 ± 0.063 | 2 ± 0.053
31 | SFSDENSDDFFMDNSYD [ESC2] | 1.97 ± 0.068 | 1.8 ± 0.11 | 2.63 ± 0.1 | 1.81 ± 0.062
32 | FSYQEVEFKLPKELVPS [CDC53] | 2.13 ± 0.056 | 2.16 ± 0.045 | 2.07 ± 0.076 | 1.91 ± 0.047
33 | DLIADTITNSSSSSDII [YML103C/NUP188] | 2.89 ± 0.077 | 2.46 ± 0.046 | 2.63 ± 0.04 | 2.56 ± 0.044
34 | MGPPSGKTYMGWWGHMG [QCR8] |  |  | 3.13 ± 0.2 | 
35 | NSIWGSSLRKNASGNKR [ITC1] | 1.6 ± 0.062 | 2.12 ± 0.097 | 2.5 ± 0.11 | 1.86 ± 0.044
36 | PWYNNPVSCIIQNDEEY [PRP8] | 1.88 ± 0.13 | 2.05 ± 0.094 | 2.43 ± 0.13 | 1.05 ± 0.12
37 | SNININVNNNNIGQQQV [SWI1] | 2.64 ± 0.19 | 3.01 ± 0.2 | 3.07 ± 0.074 | 3.13 ± 0.21
38 | KQREIVKAFLSIFEDAI [NUT1] | 1.92 ± 0.081 | 1.65 ± 0.071 | 2.38 ± 0.19 | 1.76 ± 0.1
39 | VDVLGTHSQTGTQQSNM [SIR4] | 3.12 ± 0.18 | 2.91 ± 0.17 |  | 3.2 ± 0.067
40 | ANNGAAFSPLTTTRIQS [MED2] | 2.67 ± 0.081 | 2.91 ± 0.06 | 2.65 ± 0.066 | 2.66 ± 0.044
41 | ADKIVDEFPELKEPVED [NUT2] | 3.71 ± 0.15 | 3.52 ± 0.11 | 3.23 ± 0.27 | 3.63 ± 0.14
42 | DKKKGQNVTSETHSKKR [ITC1] | 3.1 ± 0.087 | 3.12 ± 0.076 | 3.16 ± 0.061 | 3.04 ± 0.039
43 | LFYFDSSFRPCPLSQQF [BRR2] | 2.47 ± 0.072 | 1.89 ± 0.051 | 2.68 ± 0.061 | 2.41 ± 0.033
44 | ITHTENYNDLIVNYEDL [BRN1] | 3.17 ± 0.09 | 2.94 ± 0.12 | 2.56 ± 0.14 | 3.2 ± 0.072
45 | EISLKAHCILGIGGDHA [RPC40] | 1.16 ± 0.18 | 1.3 ± 0.16 | 1.28 ± 0.3 | 
46 | TVYSSEQYIQELDKRED [SMC3] | 2.76 ± 0.18 | 3.26 ± 0.24 |  | 3.47 ± 0.25
47 | DITGDIRNEGSDAEEEE [ISW2] | 2.83 ± 0.16 | 3.1 ± 0.1 | 3.05 ± 0.089 | 2.91 ± 0.068
48 | RFVIWTEAAFTKLDQVW [RPL4A] | 3.18 ± 0.11 | 2.39 ± 0.096 | 2.28 ± 0.24 | 2.39 ± 0.13
49 | QNAADLQQICRVRNKDI [RPL9A] | 2.82 ± 0.088 | 3.3 ± 0.045 | 2.59 ± 0.087 | 2.89 ± 0.06
50 | RQQQENSSKIITLDLSN [SMC1] | 3.22 ± 0.11 | 3.35 ± 0.066 | 3.18 ± 0.066 | 3.18 ± 0.061
51 | LDTYRERSKQLNEKFQE [SMC2] |  |  | 3.37 ± 0.12 | 
52 | ILQQRSKINSTELLDYA [MED4] | 2.84 ± 0.086 | 2.61 ± 0.081 | 2.44 ± 0.054 | 2.97 ± 0.11
53 | KVLQLLRLTRINSGTFV [RPL7A] | 1.8 ± 0.097 | 1.62 ± 0.093 | 1.2 ± 0.17 | 1.07 ± 0.065
54 | LNLDEIVACELILSGDT [YJL039C/NUP192] | 2.64 ± 0.08 | 2.7 ± 0.084 | 3.05 ± 0.096 | 2.6 ± 0.12
